Earlier results, collected in paper PMC11173308.

Biological target: calmodulin (UniProt P0DP23)

Kd: 7 µM
Substance: arrestin-2 (from UniProt P17870)
